According to PMC10041117:

Target: F-actin of the thin filaments in NRCs, labelled with Phalloidin-iFluor 514 (rat (endogenous in neonatal rat cardiomyocytes)) (UniProt P68035)
Experiment: FRET or BRET; FRET-FLIM (time-domain, TCSPC, donor lifetime) in NRCs demembranated in relaxing solution with 25 μmol/L nitro-blebbistatin and fixed with paraformaldehyde; mTFP donor, mVenus or Phalloidin-iFluor514 acceptor; cells untreated or incubated with isoproterenol before skinning

Chain of mTFP-cMyBP-C (cardiac myosin binding protein-C with mTFP conjugated to its N terminus) (Q14896 whole entry): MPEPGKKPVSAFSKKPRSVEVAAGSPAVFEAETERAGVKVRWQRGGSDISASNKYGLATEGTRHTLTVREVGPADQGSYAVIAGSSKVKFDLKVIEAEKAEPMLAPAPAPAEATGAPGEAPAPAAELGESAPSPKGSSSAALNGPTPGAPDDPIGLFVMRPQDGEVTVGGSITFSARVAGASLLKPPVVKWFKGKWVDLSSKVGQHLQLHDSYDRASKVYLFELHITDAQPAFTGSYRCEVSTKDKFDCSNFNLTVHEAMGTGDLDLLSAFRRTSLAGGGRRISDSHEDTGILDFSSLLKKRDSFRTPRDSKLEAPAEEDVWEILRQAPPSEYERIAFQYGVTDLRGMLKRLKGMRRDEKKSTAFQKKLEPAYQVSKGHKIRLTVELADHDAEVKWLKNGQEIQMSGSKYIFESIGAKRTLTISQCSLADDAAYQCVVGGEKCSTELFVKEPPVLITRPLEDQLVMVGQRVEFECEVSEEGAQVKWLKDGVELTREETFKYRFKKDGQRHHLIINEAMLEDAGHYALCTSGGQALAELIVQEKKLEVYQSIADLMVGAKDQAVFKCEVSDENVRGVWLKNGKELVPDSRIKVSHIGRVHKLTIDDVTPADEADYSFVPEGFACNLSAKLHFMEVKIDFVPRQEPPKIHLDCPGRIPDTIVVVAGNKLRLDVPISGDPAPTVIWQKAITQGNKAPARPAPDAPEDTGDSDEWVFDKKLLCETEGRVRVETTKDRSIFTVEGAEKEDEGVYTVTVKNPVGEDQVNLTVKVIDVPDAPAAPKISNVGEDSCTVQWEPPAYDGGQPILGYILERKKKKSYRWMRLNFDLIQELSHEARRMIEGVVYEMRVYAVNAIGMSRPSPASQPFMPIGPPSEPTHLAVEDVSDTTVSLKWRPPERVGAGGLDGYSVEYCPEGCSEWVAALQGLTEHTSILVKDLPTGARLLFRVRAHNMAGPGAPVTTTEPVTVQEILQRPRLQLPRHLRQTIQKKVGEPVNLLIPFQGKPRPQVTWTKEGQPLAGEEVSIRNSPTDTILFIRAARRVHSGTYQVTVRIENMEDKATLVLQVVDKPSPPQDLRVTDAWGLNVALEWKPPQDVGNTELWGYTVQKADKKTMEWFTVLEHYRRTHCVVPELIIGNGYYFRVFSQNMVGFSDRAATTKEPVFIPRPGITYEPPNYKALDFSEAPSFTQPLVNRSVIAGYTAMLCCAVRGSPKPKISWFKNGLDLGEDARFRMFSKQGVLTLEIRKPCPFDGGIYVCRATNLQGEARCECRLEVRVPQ

In the case of “mTFP-cMyBP-C (cardiac myosin binding protein-C with mTFP conjugated to its N terminus) (from UniProt Q14896 1-1274) (natural protein)”, the FRET efficiency <E%> is reported as 12%.
